Data set [1] can be described thus: Blood clotting time (tail nick). In kind it is in vivo, rat. To be noted: for Clotting time: 15 mins post treatment, single agent; for blood clotting time post-treatment (in words): baseline vs 15 minutes after drug treatment; for effect on anticoagulant activity of heparin (in words): co-administered with unfractionated heparin. Here is the method:
In sets of experiments, blood clotting time was detected at baseline and 15 minutes after drug treatment. In brief, a nick 1-2 mm depth was made at 5 cm and 3 cm of the proximal tail for baseline and post-drug blood clotting time, respectively; the tail nick was blotted with 4×4 gauze every 15 seconds until bleeding totally stopped, and blood clotting time was recorded from the onset of bleeding until it stopped.
Heparan sulfate proteoglycans or heparin regulates the bioavailability of FGFs. In order to develop a “cardioprotective” FGF as a therapeutic against ischemic heart disease, it was necessary to elucidate the efficacy of these cardiac FGFs in the presence of heparin treatment. Therefore, native rhFGFs (FGF 1, 2, 4, or 5) or vehicle are infused intravenously (at dose indicated above) in conjunction with unfractionated (12 units/kg/hr, i.v.) or low molecular weight heparin (enoxaparin 1 mg·kg, s.c.) during the first 15 minutes of reperfusion (FIG. 12A), and post-ischemic recovery of cardiac function and the degree of myocardial infarction is assessed. […] Unfractionated or low molecular weight heparin is administered alone during early reperfusion to elucidate the cardioprotective effects of heparins against IR injury. Whether FGF administration alters heparin activity is evaluated. To assess this potential interaction, activated clotting time (ACT) is assessed in vehicle-treated or FGF-treated groups in the absence or presence of heparin co-administration. Baseline and 15 minute post-drug treatment ACT is determined. It has been established that a heparin response occurs within 1 minute after an intravenous dose in humans and that no more time is required to achieve a predicted ACT.

A further data set deals with ERK1/2. As to the kind of experiment: ERK1/2 activation (phosphorylation) in left ventricle, immunoblot. The following applies: immediately post-treatment. In kind it is in vivo, rat. Here is the method: Hearts from rats treated with saline, native FGF1 or FGF1^ΔHBS in the presence or absence of heparin were collected immediately after administration and at 120 minutes post-treatment for evaluation of downstream signaling. One-half of each snap-frozen heart was powdered and homogenized in protein extraction buffer as previously described by our laboratory. For FGFR1, 150 μg of total protein were loaded onto a 8% SDS-PAGE gel, for ERK1/2 activation, 20 μg of whole cell protein homogenate was loaded onto a 15% SDS-PAGE gel, and for PKCα and PKCδ, […] of whole cell protein homogenate was loaded onto a 10% SDS-PAGE gel and then transferred to nitrocellulose membrane. 0.1% Ponceau S in 5% acetic acid was used to examine the transfer efficiency and loading equality as described previously 43. Membranes were blocked with 5% dry milk and then incubated with primary antibody against phospho-FGFR1 (Y-654, 1:500, Cell Signaling), phospho-ERK1/2 (1:1000, Cell Signaling) or phospho-PKCα (1:500, Santa Cruz) or phospho-PKCδ (1:500, Santa Cruz) followed by incubation with HRP-conjugated secondary goat anti-rabbit antibody (1:3000, Santa Cruz Biotechnology). Membranes were stripped and reprobed with antibodies against total FGFR1 (1:500, Cell Signaling), total ERK (1:1000, BD Transduction Labs) or total PKCα (1:500, Santa Cruz) or PKCδ (1:500, Santa Cruz). Bound antibodies were visualized by ECL system. Activation is indicated as a ratio of phosphorylated protein/total protein. β-actin (1:1000, Cell Signaling) was also used as a loading control.
Construction of his-tagged native and heparin-binding modified rhFGFs as well as their expression and purification is performed as previously described using his-tagged expression vectors and nickel-nitrilotriacetic acid resin columns. […] His-tagged FGFs are detected in solid organs by ELISA (FIG. 14) both for FGF and histidine (data not shown), and immunoprecipitation (IP) followed by immunoblot and in plasma by ELISA as described previously. His-tags are widely used because they are small and rarely interfere with function, activity, or structure of target proteins. […] There is no observed difference in total ERK or FGFR1 expression between the treatment groups.

Data set [2] can be described thus: ITC of FGF interaction with Sucrose Octasulfate (SOS). The data set is classed as binding. From the text:
FIGS. 1A-1D: Structure-guided design of the FGF1^ΔHBS construct. (FIG. 1A) Expanded view of the hydrogen bonding interactions (dashed lines) between the HS-binding site of FGF2 and heparin hexasaccharide as observed in the crystal structure. FGF2 is shown as a ribbon diagram with HS-interacting residues rendered in sticks. The three FGF2 residues namely, K128, R129 and K134 that make important hydrogen bonding with HS are boxed. The corresponding three residues in FGF1 are K127, K128 and K133 which were mutated to aspartic acid, glutamine and valine, respectively, to engineer the FGF1ΔHBS construct; (FIG. 1B) FGF1^ΔHBS elutes as a single symmetric peak at its predicted molecular weight from a Superdex 200 sizing column. Retention times of protein standards are given above the chromatogram. (FIG. 1C and FIG. 1D) Analysis of the interactions of wildtype FGF1 and FGF1^ΔHBS with SOS. Indicated solutions of SOS were injected into solutions of wildtype FGF1 or FGF1ΔHBS in the cell. […]
To test the impact of the mutations on HS-binding ability of FGF1, isothermal titration calorimetry (ITC) was used to compare the interactions of native FGF1 and FGF1^ΔHBS with Sucrose Octasulfate (SOS), a known surrogate for HS. […] Next, the cardioprotective potential of FGF1^ΔHBS mutant when administered immediately upon reperfusion was evaluated in an in vivo rat model of myocardial infarction. […]

The conditions of data set [3]: rat; for exogenous FGF1 level targeted to the heart: 10 μg/kg i.v.; for tissue and plasma FGF distribution (in words): i.v.
Data set [4] has as its system in vivo rat model of myocardial infarction.
Where [5] appears, read: rat, FGF given at reperfusion with heparin.
Setting [6] is: rat, given at reperfusion, no heparin co-therapy.

From patent US20200384079A1, “Compositions of Fibroblast Growth Factor LIgands and Methods of Treating Patients Undergoing Ischemia-Reperfusion Therapy” (University of Cincinnati, priority 2017, published 2020) come the findings set out here.

Entries after “also recorded” stand apart in the source; their conditions may differ. Like-named read-outs stand apart in the source and are kept apart here.

Take “FGF1: native recombinant human fibroblast growth factor 1”: in data set [1], the Clotting time is 15 mins post rhFGF1 treatment: 144 +/− 21 sec (n = 7). In addition, in data set [1], the “blood clotting time post-treatment (in words)” value was “no significant difference in blood clotting time”. Besides, the “effect on anticoagulant activity of heparin (in words)” value in data set [1] is recorded as “does not alter the desired anticoagulant activity of heparin; also recorded: did not alter heparin's anticoagulant properties”. The “ERK1/2 activation (phosphorylation) in left ventricle (in words)” value with ERK1/2 (FGF with heparin) is “markedly reduced ERK1/2 activation stimulated by FGF1”; with ERK1/2 (no FGF+heparin co-treatment), “significantly increased compared to saline or heparin only treatment”. Further, in data set [2], the Kd is 4 µM. Besides, the “exogenous FGF1 level targeted to the heart” value (from here on “exogenous FGF1 level targeted”) in data set [3] (no heparin) amounted to 2282 ± 97 µg/mL. In addition, the “tissue and plasma FGF distribution (in words)” value in data set [3] (FGF with heparin co-administration) was “significantly decreased in kidney, spleen, heart, liver and plasma”; in data set [3] (no FGF+heparin co-treatment), “distributed to kidney, spleen, heart, liver, and plasma, while less went to lung and skeletal muscle”. The “recovery of contractility (+dP/dt at 120 minutes post-reperfusion normalized to baseline)” value in data set [4] (rat, FGF1 10 μg/kg i.v. at reperfusion, no heparin) is 69%. Besides, the “post-ischemic cardiac function (in words)” value in data set [4] (setting [5]) is given as “reduced the post-ischemic improvement of cardiac function”; in data set [4] (setting [6]) it was “improved relaxation compared to saline treatment”.

B1: FGF1^ΔHBS: FGF1 mutant carrying the K127D/K128Q/K133V triple mutation in its HS-binding region; reduced heparin-binding affinity (protein)
chain: MAEGEITTFTALTEKFNLPPGNYKKPKLLYCSNGGHFLRILPDGTVDGTRDRSDQHIQLQLSAESVGEVYIKSTETGQYLAMDTDGLLYGSQTPNEECLFLERLEENHYNTYISKKHAEKNWFVGLDQNGSCVRGPRTHYGQKAILFLPLPVSSD
Regarding B1, in data set [1], the Clotting time is on record as 15 mins post rhFGF^ΔHBS treatment: 169 +/− 10 sec (n = 10), the “blood clotting time post-treatment (in words)” value is given as “no significant difference in blood clotting time” and the “effect on anticoagulant activity of heparin (in words)” value was “did not alter heparin's anticoagulant properties”. Moreover, in the data set on ERK1/2 (no FGF+heparin co-treatment), the “ERK1/2 activation (phosphorylation) in left ventricle (in words)” value is “significantly increased compared to saline or heparin only treatment; also recorded: significantly higher level of phosphorylated ERK1/2”. The “binding to SOS (in words)” value in data set [2] is on record as “negligible; also recorded: fails to bind SOS”. Besides, the “exogenous FGF1 level targeted” value in data set [3] (no heparin) was found to be 3073 ± 101 µg/mL. For the same molecule, the “exogenous FGF1 level targeted” value in data set [3] (with heparin administration) is 4336 ± 775 µg/mL. Also, the “tissue and plasma FGF distribution (in words)” value in data set [3] (no FGF+heparin co-treatment) was “mainly went to the heart including atria, left ventricle, and right ventricle; also recorded: greater biodistribution of FGF1^ΔHBS to the left ventricle compared to native FGF1”. Moreover, the “heart rate compared to the saline group (in words)” value in data set [4] (rat I/R study) is “no significant differences in heart rate”. Further, the “post-ischemic cardiac function (in words)” value in data set [4] (setting [5]) is “improved post-ischemic cardiac function, even in the presence of heparin”. In addition, the “post-ischemic cardiac function (in words)” value in data set [4] (setting [6]) is recorded as “significantly improved compared to the native FGF1 cohorts; also recorded: significantly improved post-ischemic cardiac function compared to native FGF1; also recorded: greater improvement in cardiac function compared to FGF1”.
